This passage reports decrease of GIRK1* current (two-electrode voltage clamp, Xenopus oocytes coexpressing GIRK1* and Gβγ) 40-50 min after injection of purified His-phosducin to ~23 µM results from article PMC6346094.

This test deals with Gβγ (bovine) (UniProt P62871).

“His-tagged phosducin (from UniProt P19632 1-245) (natural protein)” returned a decrease of GIRK1* current (two-electrode voltage clamp, Xenopus oocytes coexpressing GIRK1* and Gβγ) 40-50 min after injection of purified His-phosducin to ~23 µM of 74%.
